Results on 1 protein are retold here after PMC2865183 (Nature chemical biology, 2009).

The series concerns the molecule itself. Put plainly: SEC. For orientation: Size exclusion chromatography separates by hydrodynamic size, large species first.

Where only a bound is given, the exact number is not on record here.

B1: VVD-36 M135I:M165I (domain or fragment, UniProt Q9C3Y6 37-186, looked up)
chain: HTLYAPGGYDIMGYLIQIMNRPNPQVELGPVDTSCALILCDLKQKDTPIVYASEAFLYMTGYSNAEVLGRNCRFLQSPDGMVKPKSTRKYVDSNTINTIRKAIDRNAEVQVEVVNFKKNGQRFVNFLTIIPVRDETGEYRYSMGFQCETE
B1: the “fold increase in dimer affinity (against VVD-36)” value was above 5 fold.
